Patent publication US20150086555A1 (THERACLONE SCIENCES, published 2015)

Biological target: hemagglutinin (HA) of influenza A/Japan/305/57 (H2N2) on whole virions (Influenza A virus A/Japan/305/1957(H2N2), UniProt P03451 16-562)
Experiment: ELISA; BCC supernatant on coated inactivated whole virions

Binder	ELISA virus binding (OD450)
TCN-530 (5248_H10a) (antibody, V domains shown) VH: QVQLVQSGAEVRKPGSSVKVSCKASGGPFMSYAIGWVRQAPGQGLEWMGGINPVFGRPHYAQKFQGRVTIATDDSTKTSYMELSSLTSEDTGMYYCASRYSRSSPGTFESWGQGTLVTVSS VL: EIVMTQFPATLSVSPGERVTLSCRASQSVSNNLAWYQQKPGQPPRLLIYDASTRATGVPAKFSGTGSGTEFTLSISSLQSEDFAVYYCQQYHNWPPSYSFGLGTKLEIK	1.73
TCN-531 (5091_H13) (antibody, V domains shown) VH: EVQLVESGGDLVQPGRSLKLSCTGSGFTFGDYGVTWVRQAPGKGLEWVGFIRTRPWGGTADTAASVKGRFTISRDDSKSLAYLQMNSLKTEDTAVYYCCRDAPPNVEVASMTNWYFDLWGRGTLVTVSS VL: DIQLTQSPSSLSASVGDRVTITCRASQGILNCLAWYQQKPGKVPNLLMYAASTLQSGVPSRFSGSGFGTDFTLTISSLQPEDVATYYCQTYGGVSTFGGGTKVEIR	0.67
TCN-533 (5256_A17a) (antibody, V domains shown) VH: QVQLVQSGADVKKPGSSVTVSCKASGGSFSNYGINWVRQAPGQGLEWMGGIIPLINAPNYAPKFQGRVTITADMFSNIVSLQLTSLRTDDTAVYYCARRKMTTAIDYWGQGTLVTVSS VL: QPVLTQPPSASASLGASVTLTCTLSSAYSNYKVDWYQQRPGKGPRFVMRVGTGGIVGSKGDGIPDRFSVLGSGLNRYLTIKNIQEEDESDYHCGADHGSGSNFVSPYVFGGGTKLTVL	1.1
TCN-534 (5249_B02) (antibody, V domains shown) VH: QVQLVQSGAEVKKPGSSVKVSCRESGGTFNGYTITWVRQAPGQGLEWMGGIIPMMGTVNYAQKLQGRVTITTDYFTKTAYMDLNNLRSEDTAMYYCVKIRYTGQQLLWGQGTLVTVSS VL: DIQMTQSPSTLSASIGDRVTITCRASQSIASWLAWYQQKPGKAPKLLIYEAVNLESGVPSRFSGSGSGTDFTLTISSLQPDDFATYFCQHYGTISQTFGGGTKVEIK	2.56
TCN-535 (5246_P19) (antibody, V domains shown) VH: QVQLVQSGSEVKKPGTSVKVSCTASGSVFTNYGISWVRQAPGQGLEWMGGIIPLFGAAKYAQKFQGRVTITADESTKTVYMELSRLTSKDTAIYFCAKAPRVYEYYFDQWGQGTPVTVSS VL: EIVLTQSPGTLSLSPGERATLSCRASQSVSSSQLAWYQQKPGQAPRLIIYGASTRATGIPDRFSGSGSGTDFTLTIGRLEPEDFAVFFCQQYSTSPPTFGQGTKVDFK	1.46
TCN-536 (5095_N01) (antibody, V domains shown) VH: QVQLQQWGAGLLKPSETLSLTCAVYGGSFSVSGYYWSWIRQPPGRGLEWIGEISHGGSTNYNPSLKSRVTISVDTTKNQFSLRLSSVTAADTAVYYCARGTDPDTEVYCRVGNCAAFDYWGQGSLVTVSS VL: EIILAQSPGTLSLSPGERATLSCRASQFVSTRSLAWYQQRPGQAPRLLIYGASSRATGIPDRFSGSGSGTDFTLTISRLEPEDFAVYYCQHYGYSPRYAFGQGSKVEIK	0.08
TCN-539 (5056_A08) (antibody, V domains shown) VH: QVQLVESGGGVVQPGRSLRLSCAASEITFITYAMHWVRQAPGKGLEWVALISDDGSNKFYADSVKGRFTISRDNSKNTLYLQMNSLRAEDTAAYYCAREGVYFDSGTYRGYFDYWGQETLVTVSS VL: EIVLTQSPATLSLSPGERATLSCRASQSVSSYLAWYQQKPGQAPRLLIYDASNRATGIPARFSGSGSGTDFTLTISSLEPEDFAVYYCQQRSHWPPITFGQGTRLEIK	0.06
TCN-540 (5060_F05) (antibody, V domains shown) VH: QVQLVQSGGGVVQPGRSLRLSCAASGFTFSSYAMHWVRQAPGKGLEWVAIISYDGNDQYYTDSVKGRFTISRDSSKVYLQMHRLRPEDTAVYYCAKEFETSGYFHGSFDYWGQGILVTVSS VL: QSALTQPASVSGSPGQSITISCTGTSSDVGGYNYVSWYQQHPGKAPKLLIYEVTNWPSGVSNRFSGSKSGNTASLTISGLQAEDEADYYCSSYAGSSTWVFGGGTRVTVL	3.62
